Data taken from patent US6482410B1, “Cytotactin derivatives that stimulate attachment and neurite outgrowth, and methods of making same” (The Scripps Research Institute, priority 1994, dated 2002).
Where “and” joins values, the source holds several entries; their conditions need not be identical. Identical values can stand only once. Entries after “also recorded” stand apart in the source; their conditions may differ.

Experiments:
DRG cells = experiment: DRG neurite outgrowth, 40 hour culture, morphology; assay type: cell-based, chicken; settings: DRG cells cultured 40 hours
Experimental: In order to assess the effect to the cell binding regions of CT/TN on the outgrowth of neurites from PNS neurons, DRG cells were cultured for 40 hours on popylysine, CTfn3, CTfn6, CTfg, and CTfn3-CTfn6 mixed substrates. The cultures were then fixed and the cell and neurite morphology was analyzed by phase contrast microscopy. The cells were plated on plastic substrates coated with the same concentrations of CTITN and fusion proteins used in the attachment assay.

[1] = tested on: neurons from chick forebrain; experiment: CNS neurite outgrowth, forebrain neurons, 7 hours; assay type: cell-based; settings: 7 hour growth period; for % Sprouting: Table 4, FB (forebrain) neurons
Experimental: (§1) Dorsal root ganglia (DRG) cells or forebrain neurons were prepared for the cell attachment assays as follows. DRG from day 6 chicken embryos or forebrains from day 7 chicken embryos were dissected into HBSS. The tissue was pelleted by centrifugation and resuspended in CMF-HBSS and incubated at 37° C. for 10 minutes. The tissue was pelleted again and resuspended in CMF-HBSS containing 0.08% trypsin and allowed to trypsinize for 20 minutes at 37° C. An equal volume of DMEM/F12, 10% FCS, 20 ng/ml nerve growth factor (NGF) (for DRG cells only), 10 μg/ml gentamycin (10% medium) was added, and the tissue was pelleted and resuspended in 2 ml of the 10% medium. The cells were triturated with a fire-polished Pasteur pipette for 15 strokes, and the cells were washed and resuspended in 10 ml of 10% medium. DRG cells were plated in a 10 cm tissue culture dish and incubated for 1 hour at 37° C. in 5% CO2, to allow for attachment of contaminating fibroblasts.
(§2) After replating, the cells were harvested, pelleted and washed three times in DMEM/F12, 1% fetal calf serum (FCS), 20 ng/ml NGF (for DRG cells only), 10 μg/ml gentamycin (1% medium), and the number of cells determined using a hemocytometer. The DRG were resuspended to a density of 6×10^5 cells/ml in attachment buffer. The neurons were resuspended to a density of 2×10^4 cells/ml in 1% medium and added to substrates and placed at 37° C., 5% CO2 for 15 hours.
(§3) After the growth period, the dishes were gently rinsed with PBS to remove unbound cells, fixed with 1% glutaraldehyde, and viewed by phase contrast microscopy. Ten to forty cells were analyzed for each substrate. Cells were judged as neurite-bearing if the length of the processes was greater than one cell diameter. All cells with neurites were photographed with a 20× objective and total neurite length per neurite-bearing cell was derived from the photographic prints. Percentage of neuronal sprouting was calculated from at least six experiments. Neurite length was calculated from at least three experiments.
To investigate whether CNS neurons could also extend neurites on CT/TN and CT/TN fragments, neurons from chick forebrain were plated at low density on CT/TN, CT/TN fragments and polylysine, and analyzed for neurite outgrowth after a 7 hour growth period (a time period found to be optimal for stable neurite outgrowth from these cells). The lengths of neurites on substrates that supported sprouting were essentially the same for the forebrain neurons and were therefore not quantitated further.

[2] = tested on: dorsal root ganglia (DRG) neurons; experiment: Two-dimensional neurite outgrowth assay, DRG, 15 hours; assay type: cell-based, chicken; settings: 15 hours; for neurite promoting activity on DRG cells: low density; for % Sprouting / Neurite Length: Table 4, DRG; for % Sprouting: neurites greater than one cell diameter; for Neurite Length: per neurite-bearing cell; for Percent Sprouting / Neurite Length (in microns): Table 5, DRG; for Percent Sprouting: six experiments; for Neurite Length (in microns): three experiments
Experimental: as §1, §2, §3
This extensive neurite outgrowth after 40 hours made quantitation of the percentage of neurite-bearing cells and neurite length difficult. To analyze quantitatively the effect of CT/TN fusion proteins on DRG neurite outgrowth, DRG cells were therefore plated at low density on CT/TN or CT/TN fragments and analyzed after 15 hours in culture for the percentage of cells that sprouted neurites greater than one cell diameter and for the everage neurite length per neuron. These conditions enhanced the number of isolated cells and discouraged the cell-cell interactions and fasciculation that occurred in the long-term cultures.
The proteins used in the neurite outgrowth assays are the same as those used in the cell attachment assays. […] In addition, poly-L-lysine was adsorbed to the solid support. […] Any cells adhering to the solid support were examined for sprouting and neurite length as defined herein.
Proteins used in the neurite outgrowth assays were prepared as described in Example 5.A.2.
Dorsal root ganglia (DRG) from day 6 chicken embryos were prepared as described in Example 5.A.4. For the neurite outgrowth assays, the DRG were resuspended at a density of 2×10^4 cells/ml in 1% medium, added to solid support, and placed at 37° C. in 5% CO2 for 15 hours. After the attachment and growth period, the dishes were gently rinsed with PBS to remove unbound cells, fixed with 1% (v/v) glutaraldehyde, and viewed by phase contrast microscopy. Ten to thirty cells were analyzed for each adsorbed protein spot. Cells were judged as neurite-bearing if the length of the processes were greater than one cell diameter. All cells with neurites were photographed with a 40× objective and the total neurite length per neurite-bearing cell was derived from the prints. The percent of cells that were sprouting and the average neurite length was derived from six and three independent experiments, respectively. […]

[3] = tested on: dorsal root ganglia (DRG) cells; experiment: Cell attachment assay, DRG neurons on protein-coated solid support; assay type: cell-based, chicken; settings: short-term attachment assay
Experimental: as §1
as §2, with “The neurons were resuspended to a density of 2×10^4 cells/ml in 1% medium and added to substrates and placed at 37° C., 5% CO2 for 15 hours.” left out
Chicken fibroblasts, DRG, and solid supports (dishes) coated with CT for use in the cell attachment assays were prepared as described in Examples 5.A.2-4, respectively. […] The number of bound cells was determined using a 10× objective with an eyepiece reticle. The number of cells was determined in four fields for each fusion protein dot as the number of cells bound per […]. […] The number of cells bound for CT was expressed as the average of the twelve measurements±standard deviation […]. […]
Cell attachment assays were performed essentially as follows. […] The cells were then washed in attachment buffer (CMF-HBSS, 10 mM Hepes, 1 mM CaCl2, 1 mM MgCl2, 0.1 mM MnCl2, 2% BSA) three times, counted in a hemocytometer, resuspended to a density of 6×10^5 cells/ml. […]

B1: CTfn3: CT:GST fusion protein, fibronectin type III repeat III, residues 774-864 of SEQ ID NO 4 (protein)
chain: LDAPSQIEAKDVTDTTALITWSKPLAEIEGIELTYGPKDVPGDRTTIDLSEDENQYSIGNLRPHTEYEYEVTLISRRGDMESDPAKEVFVT
modifications: left off: a dimerising Fc or GST
DRG cells
  neurite and cell morphology after 40 hours: long fasciculated processes
[1]
  forebrain cell attachment: did not support forebrain cell attachment
  forebrain neuron sprouting versus polylysine: no effect on neurite outgrowth
  % Sprouting: 0%
[2]; DRG
  DRG neurite length versus polylysine: significantly longer
  average neurite length relative to poly-L-lysine: 3 times
  percentage of neurite-bearing DRG cells versus polylysine: comparable; also recorded: the same as on poly-L-lysine
  neurite promoting activity on DRG cells: did show neurite promoting activity
[2]
  % Sprouting: 12 ± 2%
  Neurite Length: 260 ± 141 microns
  Percent Sprouting: 12 ± 2
  Neurite Length (in microns): 260 ± 141 microns

B2: CTfn6: CT:GST fusion protein, fibronectin type III repeat VI, residues 1318-1398 of SEQ ID NO 4 (protein)
chain: VVGSPKGISFSDITENSARVSWTPPRSRVDSYRVSYVPITGGTPNVVTVDGSKTRTKLVKLVPGVDYNVNIISVKGFEESE
modifications: left off: a dimerising Fc or GST
DRG cells
  neurite and cell morphology after 40 hours: moderately long neurites
[1]
  forebrain cell attachment: promotes attachment
  forebrain neuron sprouting versus polylysine: significant increase
  % Sprouting: 8.7 ± 1.9 %
[3]
  DRG neuron attachment to coated substrate (words): able to support DRG neuron attachment; also recorded: supports both fibroblast and neuronal cell attachment
[3]; listed as Ctfn6
  DRG neuron attachment to coated substrate (words): support fibroblast and neuronal cell attachment
[2]; DRG
  DRG neurite length versus polylysine: not statistically different; also recorded: statistically indistinguishable
  increase in number of neurite-bearing cells over polylysine: 82% and 57%
  percentage of neurite-bearing DRG cells versus polylysine: increase in neurite outgrowth over poly-L-lysine
  neurite promoting activity on DRG cells: did show neurite promoting activity
[2]
  % Sprouting: 31 ± 2 %
  Neurite Length: 153 ± 124 microns
  Percent Sprouting: 31 ± 2
  Neurite Length (in microns): 154 ± 124 microns

B3: CTfg: CT:GST fusion protein, entire fibrinogen domain, residues 1570-1810 of SEQ ID NO 4 (protein)
chain: SMRSKMIQTVFTTTGLLYPYPKDCSQALLNGEVTSGLYTIYLNGDRTQPLQVFCDMAEDGGGWIVFLRRQNGKEDFYRNWKNYVAGFGDPKDEFWIGLENLHKISSQGQYELRVDLRDRGETAYAVYDKFSVGDAKTRYRLRVDGYSGTAGDSMTYHNGRSFSTFDKDNDSAITNCALSYKGAFWYKNCHRVNLMGRYGDNNHSQGVNWFHWKGHEYSIQFAEMKLRPSSFRNLEGRRKRA
modifications: left off: a dimerising Fc or GST
DRG cells
  neurite and cell morphology after 40 hours: basal level of outgrowth
[1]
  forebrain neuron sprouting versus polylysine: not significantly different
  % Sprouting: 2.2 ± 0.5%
[3]
  DRG neuron attachment to coated substrate (words): able to support DRG neuron attachment; also recorded: attached well
[2]; DRG
  DRG neurite length versus polylysine: not statistically different; also recorded: statistically indistinguishable
  percentage of neurite-bearing DRG cells versus polylysine: comparable
  neurite promoting activity on DRG cells: did show neurite promoting activity
[2]
  % Sprouting: 8 ± 3%
  Neurite Length: 82 ± 23 microns
  Percent Sprouting: 8 ± 3
  Neurite Length (in microns): 83 ± 23 microns
